In PMC12278352, “Characterization of DnaB–DnaG Interaction in M. tuberculosis Using Small‐Angle X‐ray Scattering‐Based Dissociation Assay” (Chembiochem, 2025):

B1: M. tuberculosis DnaG without the zinc-binding domain (DnaGΔZBD, amino acids 115-639) (domain or fragment)
chain: SRLLAANAAAAAFYAQALQSDEAAPARQYLTERSFDAAAARKFGCGFAPSGWDSLTKHLQRKGFEFEELEAAGLSRQGRHGPMDRFHRRLLWPIRTSAGEVVGFGARRLFDDDAMEAKYVNTPETLLYKKSSVMFGIDLAKRDIAKGHQAVVVEGYTDVMAMHLAGVTTAVASCGTAFGGEHLAMLRRLMMDDSFFRGELIYVFDGDEAGRAAALKAFDGEQKLAGQSFVAVAPDGMDPCDLRLKCGDAALRDLVARRTPLFEFAIRAAIAEMDLDSAEGRVAALRRCVPMVGQIKDPTLRDEYARQLAGWVGWADVAQVIGRVRGEAKRTKHPRLGRLGSTTIARAAQRPTAGPPTELAVRPDPRDPTLWPQREALKSALQYPALAGPVFDALTVEGFTHPEYAAVRAAIDTAGGTSAGLSGAQWLDMVRQQTTSTVTSALISELGVEAIQVDDDKLPRYIAGVLARLQEVWLGRQIAEVKSKLQRMSPIEQGDEYHALFGDLVAMEAYRRSLLEQASGDDLTA

Key:
[1] = molecular target: DnaG-binding domain of M. tuberculosis DnaB helicase (DnaBn, amino acids 23-166) (M. tuberculosis) (UniProt P9WMR3); test: cross-linking; 4 μM DnaGΔZBD with DnaBn (0-15.9 μM), 0.045% glutaraldehyde, 40 mM HEPES pH 7.5, 150 mM NaCl, 10 mM MgCl2, 0.1 mM EDTA, 1 mM DTT, 25 min at 25 °C; SDS-PAGE, Coomassie
[2] = molecular target: the molecule itself; test: SAXS
[3] = molecular target: the molecule itself; test: cross-linking; 4 μM DnaGΔZBD with 0.011-0.25% glutaraldehyde, 40 mM HEPES pH 7.5, 150 mM NaCl, 1 mM DTT, 0.1 mM EDTA, 0.5% DMSO, 30 min at 25 °C; SDS-PAGE, Coomassie
[4] = molecular target: DnaG-binding domain of M. tuberculosis DnaB helicase (DnaBn, amino acids 23-166) (M. tuberculosis) (UniProt P9WMR3); test: SPR; DnaBn (2.4 μg) immobilised on a GLC chip by amine coupling; soluble DnaGΔZBD 0-600 nM, 30 μL/min; 25 °C; 40 mM HEPES pH 7.5, 200 mM NaCl, 0.1 mM EDTA, 1 mM DTT; steady-state fit; normalised to a BSA channel; three repeats

| Molecule | stoichiometry N [1] | stoichiometry N [2] | monomer:dimer ratio at 0.25% glutaraldehyde [3] | Kd [4] |
| --- | --- | --- | --- | --- |
| DnaG-binding domain of M. tuberculosis DnaB helicase (DnaBn, amino acids 23-166) (from UniProt P9WMR3 23-166) (domain or fragment) | 2 |  |  |  |
| B1 |  | 2 | ~1.5 monomer per dimer | 210 nM |
